Test results published in the Immune Epitope Database (IEDB).

Assays:
HLA-A*02:01 [1] = test: IEDB peptide-MHC binding, purified MHC/competitive/fluorescence; ≥ and ≤ were set here for values at or beyond the usual limits of such assays
HLA-A*24:02 = test: as above
HLA-A*03:01 [2] = test: IEDB peptide-MHC binding, purified MHC/competitive/fluorescence; filed as Kd, often an IC50 or EC50 that approximates it; ≥ and ≤ were set here for values at or beyond the usual limits of such assays
HLA-B*07:02 [3] = test: IEDB peptide-MHC binding, purified MHC/competitive/radioactivity; filed as Kd, often an IC50 or EC50 that approximates it; ≥ and ≤ were set here for values at or beyond the usual limits of such assays
HLA-B*35:01 = test: as above
HLA-B*51:01 = test: as above
HLA-B*53:01 = test: as above
HLA-B*54:01 = test: as above
HLA-A*01:01 = test: IEDB peptide-MHC binding, purified MHC/direct/fluorescence; filed as Kd, often an IC50 or EC50 that approximates it; ≥ and ≤ were set here for values at or beyond the usual limits of such assays
HLA-A*02:01 [4] = test: as above
HLA-A*03:01 [5] = test: as above
HLA-A*11:01 = test: as above
HLA-A*24:03 = test: as above; conditions: source organism: Vibrio cholerae
HLA-A*26:01 = test: as above
HLA-A*31:01 = test: as above
HLA-A*69:01 = test: as above
HLA-B*07:02 [6] = test: as above
HLA-B*08:01 = test: as above
HLA-B*15:01 = test: as above
HLA-B*27:05 = test: as above
HLA-B*40:01 = test: as above
HLA-B*44:02 = test: as above
HLA-B*58:01 = test: as above
HLA-A*02:01 [7] = test: IEDB peptide-MHC binding, purified MHC/competitive/radioactivity; filed as Kd, often an IC50 or EC50 that approximates it; ≥ and ≤ were set here for values at or beyond the usual limits of such assays; conditions: source organism: Vaccinia virus WR
[8] = source organism: Sudan ebolavirus
[9] = source organism: Triticum aestivum
[10] = source organism: Vaccinia virus WR
[11] = source organism: Vibrio cholerae
[12] = source organism: SARS coronavirus Tor2
[13] = source organism: Zaire ebolavirus
[14] = source organism: Coxiella burnetii

Sequence: PTLTTPENI
- IC50 (HLA-A*02:01 [1]; [8]): ≥ 269 µM
- IC50 (HLA-A*24:02; [8]): 53.7 µM

Sequence: QLAFFVAGH
- Kd (HLA-A*03:01 [2]; source organism: Yersinia pestis Antiqua): 0.199 µM

Sequence: QPSSQVSF
- Kd (HLA-B*07:02 [3]; [9]): ≥ 26.2 µM
- Kd (HLA-B*35:01; [9]): ≥ 23.9 µM
- Kd (HLA-B*51:01; [9]): 2.96 µM
- Kd (HLA-B*53:01; [9]): ≥ 38.3 µM
- Kd (HLA-B*54:01; [9]): ≥ 87.7 µM

Sequence: RLSVKTFVH
- Kd (HLA-A*03:01 [2]; source organism: Coxiella burnetii RSA 493): 0.0276 µM

Sequence: RLSVKTFVK
- Kd (HLA-A*03:01 [2]; source organism: Francisella tularensis subsp. tularensis FSC198): 0.0253 µM

Sequence: RPRFDDAYNI
- Kd (HLA-B*07:02 [3]; [10]): 0.00526 µM
- Kd (HLA-B*35:01; [10]): 15 µM
- Kd (HLA-B*51:01; [10]): 3.41 µM
- Kd (HLA-B*53:01; [10]): 0.0327 µM
- Kd (HLA-B*54:01; [10]): 2.38 µM

Sequence: RYDYANLCQ
- Kd (HLA-A*01:01; [11]): ≥ 20 µM
- Kd (HLA-A*02:01 [4]; [11]): ≥ 20 µM
- Kd (HLA-A*03:01 [5]; [11]): ≥ 20 µM
- Kd (HLA-A*11:01; [11]): ≥ 20 µM
- Kd (HLA-A*24:03): ≥ 20 µM
- Kd (HLA-A*26:01; [11]): ≥ 20 µM
- Kd (HLA-A*31:01; [11]): ≥ 20 µM
- Kd (HLA-A*69:01; [11]): ≥ 20 µM
- Kd (HLA-B*07:02 [6]; [11]): ≥ 20 µM
- Kd (HLA-B*08:01; [11]): ≥ 20 µM
- Kd (HLA-B*15:01; [11]): ≥ 20 µM
- Kd (HLA-B*27:05; [11]): ≥ 20 µM
- Kd (HLA-B*40:01; [11]): ≥ 20 µM
- Kd (HLA-B*44:02; [11]): ≥ 20 µM
- Kd (HLA-B*58:01; [11]): ≥ 20 µM

Sequence: SPLFLIVAA
- Kd (HLA-B*07:02 [3]; [12]): 0.481 µM
- Kd (HLA-B*35:01; [12]): 1.04 µM
- Kd (HLA-B*51:01; [12]): 12.1 µM
- Kd (HLA-B*53:01; [12]): ≥ 44.7 µM
- Kd (HLA-B*54:01; [12]): 0.00252 µM

Sequence: SYRNKPSIA
- IC50 (HLA-A*24:02; source organism: Vaccinia virus): 43.8 µM

Sequence: TLATISTSP
- IC50 (HLA-A*02:01 [1]; [13]): 29.7 µM
- IC50 (HLA-A*24:02; [13]): ≥ 88.9 µM

Sequence: TLYDRYLIK
- Kd (HLA-A*03:01 [2]; source organism: Campylobacter lari RM2100): 0.0109 µM

Sequence: TPEQKAYVPA
- Kd (HLA-B*07:02 [3]; [10]): 1.23 µM
- Kd (HLA-B*35:01; [10]): 11 µM
- Kd (HLA-B*51:01; [10]): ≥ 55.2 µM
- Kd (HLA-B*53:01; [10]): ≥ 45.2 µM
- Kd (HLA-B*54:01; [10]): 0.0133 µM

Sequence: TTGRLIWTL
- IC50 (HLA-A*02:01 [1]; [8]): 2 µM
- IC50 (HLA-A*24:02; [8]): 0.309 µM

Sequence: VPEFAKQYVL
- Kd (HLA-B*07:02 [3]; [10]): 0.0258 µM
- Kd (HLA-B*35:01; [10]): 0.0307 µM
- Kd (HLA-B*51:01; [10]): 1.55 µM
- Kd (HLA-B*53:01; [10]): 0.0852 µM
- Kd (HLA-B*54:01; [10]): 1.86 µM

Sequence: VYKLDISEA
- IC50 (HLA-A*24:02; [13]): 44 µM

Sequence: WHYDQENPY
- Kd (HLA-B*35:01; source organism: Dengue virus 4 Philippines/H241/1956): 1.56 µM

Sequence: YHFDPVHHL
- Kd (HLA-A*01:01; [14]): ≥ 20 µM
- Kd (HLA-A*02:01 [4]; [14]): ≥ 20 µM
- Kd (HLA-A*03:01 [5]; [14]): ≥ 20 µM
- Kd (HLA-A*11:01; [14]): ≥ 20 µM
- Kd (HLA-A*26:01; [14]): ≥ 20 µM
- Kd (HLA-A*31:01; [14]): ≥ 20 µM
- Kd (HLA-A*69:01; [14]): ≥ 20 µM
- Kd (HLA-B*07:02 [6]; [14]): ≥ 20 µM
- Kd (HLA-B*08:01; [14]): ≥ 20 µM
- Kd (HLA-B*15:01; [14]): ≥ 20 µM
- Kd (HLA-B*27:05; [14]): ≥ 20 µM
- Kd (HLA-B*40:01; [14]): ≥ 20 µM
- Kd (HLA-B*44:02; [14]): ≥ 20 µM
- Kd (HLA-B*58:01; [14]): ≥ 20 µM

Sequence: YLLFASMGFK
- Kd (HLA-A*02:01 [7]): 2.57 µM
- Kd (HLA-B*07:02 [3]; [10]): ≥ 69.6 µM
- Kd (HLA-B*35:01; [10]): ≥ 69.9 µM

Sequence: YPFYVSPTEM
- Kd (HLA-B*07:02 [3]; [10]): 2.06 µM
- Kd (HLA-B*35:01; [10]): 0.00632 µM
- Kd (HLA-B*51:01; [10]): 1.55 µM
- Kd (HLA-B*53:01; [10]): 0.446 µM
- Kd (HLA-B*54:01; [10]): 0.082 µM

Sequence: YPQPQLPY
- Kd (HLA-B*07:02 [3]; [9]): ≥ 22.6 µM
- Kd (HLA-B*35:01; [9]): 0.249 µM
- Kd (HLA-B*51:01; [9]): 10.9 µM
- Kd (HLA-B*53:01; [9]): 1.34 µM
- Kd (HLA-B*54:01; [9]): ≥ 54.5 µM
